Usually IC50 stands for the concentration at which inhibition is half-maximal. A low value points to greater potency.

Consider 25 molecules from patent US20180148477A1 (published 2018).

In test [1] the target is rh integrin α4β7 (R&D Systems #5397-A30) (human) (UniProt P13612). Nature of the test: competition ELISA vs MAdCAM-1.
For test [2], the target named is human α4β7 integrin on cells (human) (UniProt P13612). In words: RPMI8866 adhesion to MAdCAM-1.

Bridge positions count the residues as written; N and C are the ends. Square brackets hold non-standard residues; d marks the D form. Ends that are not written are not given here. 1Nal = N[C@@H](Cc1cccc2ccccc12)C(=O)O; 2Nal = N[C@@H](Cc1ccc2ccccc2c1)C(=O)O; d1Nal = N[C@H](Cc1cccc2ccccc12)C(=O)O; d2Nal = N[C@H](Cc1ccc2ccccc2c1)C(=O)O; NMeR = CN[C@@H](CCCNC(=N)N)C(=O)O; hPhe = N[C@@H](CCc1ccccc1)C(=O)O; Aic = NC1(C(=O)O)Cc2ccccc2C1; NMeK = CN[C@@H](CCCCN)C(=O)O; Pen = CC(C)(S)[C@H](N)C(=O)O; dNMeK = CN[C@H](CCCCN)C(=O)O; Dab = NCC[C@H](N)C(=O)O; Dap = NC[C@H](N)C(=O)O

B1: SEQ ID NO: 50 (peptide)
peptide: Ac-[Pen][NMeR]SDTL[Pen][2Nal][hPhe][dK]-NH2
modifications: disulfide 1-7
SMILES: CC(=O)N[C@@H]1C(=O)N(C)[C@@H](CCCNC(=N)N)C(=O)N[C@@H](CO)C(=O)N[C@@H](CC(=O)O)C(=O)N[C@@H]([C@@H](C)O)C(=O)N[C@@H](CC(C)C)C(=O)N[C@H](C(=O)N[C@@H](Cc2ccc3ccccc3c2)C(=O)N[C@@H](CCc2ccccc2)C(=O)N[C@H](CCCCN)C(N)=O)C(C)(C)SSC1(C)C
In test [1], B1 yielded an IC50 of more than 10 nM.

B2: SEQ ID NO: 59 (peptide)
peptide: Ac-[Pen][NMeR]SDTL[Pen]WE[Dap]-NH2
modifications: disulfide 1-7
SMILES: CC(=O)N[C@@H]1C(=O)N(C)[C@@H](CCCNC(=N)N)C(=O)N[C@@H](CO)C(=O)N[C@@H](CC(=O)O)C(=O)N[C@@H]([C@@H](C)O)C(=O)N[C@@H](CC(C)C)C(=O)N[C@H](C(=O)N[C@@H](Cc2c[nH]c3ccccc23)C(=O)N[C@@H](CCC(=O)O)C(=O)N[C@@H](CN)C(N)=O)C(C)(C)SSC1(C)C
B2 showed an IC50 in test [2] of more than 10000 nM.

B3: SEQ ID NO: 51 (peptide)
peptide: Ac-[Pen][NMeR]SDTL[Pen]W[Aic][dK]-NH2
modifications: disulfide 1-7
SMILES: CC(=O)N[C@@H]1C(=O)N(C)[C@@H](CCCNC(=N)N)C(=O)N[C@@H](CO)C(=O)N[C@@H](CC(=O)O)C(=O)N[C@@H]([C@@H](C)O)C(=O)N[C@@H](CC(C)C)C(=O)N[C@H](C(=O)N[C@@H](Cc2c[nH]c3ccccc23)C(=O)NC2(C(=O)N[C@H](CCCCN)C(N)=O)Cc3ccccc3C2)C(C)(C)SSC1(C)C
Turning to B3, the IC50 in test [1] was more than 25 nM.

B4: SEQ ID NO: 27 (peptide)
peptide: Ac-[Pen][NMeR]SDTL[Pen][2Nal][dY][dK]-NH2
modifications: disulfide 1-7; also: dimer via DIG
As for B4, the IC50 in test [2] is more than 25 nM.

B5: SEQ ID NO: 88 (peptide)
peptide: Ac-[Pen][NMeR]SDTL[Pen][2Nal][dK]-NH2
modifications: disulfide 1-7
SMILES: CC(=O)N[C@@H]1C(=O)N(C)[C@@H](CCCNC(=N)N)C(=O)N[C@@H](CO)C(=O)N[C@@H](CC(=O)O)C(=O)N[C@@H]([C@@H](C)O)C(=O)N[C@@H](CC(C)C)C(=O)N[C@H](C(=O)N[C@@H](Cc2ccc3ccccc3c2)C(=O)N[C@H](CCCCN)C(N)=O)C(C)(C)SSC1(C)C
Turning to B5, the IC50 in test [1] was more than 10 nM.

B6: SEQ ID NO: 9 (peptide)
peptide: Ac-[Pen][NMeR]SDTL[Pen][2Nal][dE][dK]-NH2
modifications: disulfide 1-7
SMILES: CC(=O)N[C@@H]1C(=O)N(C)[C@@H](CCCNC(=N)N)C(=O)N[C@@H](CO)C(=O)N[C@@H](CC(=O)O)C(=O)N[C@@H]([C@@H](C)O)C(=O)N[C@@H](CC(C)C)C(=O)N[C@H](C(=O)N[C@@H](Cc2ccc3ccccc3c2)C(=O)N[C@H](CCC(=O)O)C(=O)N[C@H](CCCCN)C(N)=O)C(C)(C)SSC1(C)C
Consider B6, for which the results for the IC50 in test [1] and in test [2] were more than 10 nM and more than 100 nM, respectively.

B7: SEQ ID NO: 63 (peptide)
peptide: Ac-[Pen][NMeR]SDTL[Pen]W[dE][Dap]
modifications: disulfide 1-7; also: C-terminus written Dap-Ac, acetyl place unclear
Turning to B7, the IC50 in test [2] was more than 1000 nM.

B8: SEQ ID NO: 34 (peptide)
peptide: Ac-[Pen][NMeR]SDTL[Pen][d1Nal]E[dK]-NH2
modifications: disulfide 1-7; also: dimer via DIG
In test [2], B8 yielded an IC50 of more than 25 nM.

B9: SEQ ID NO: 11 (peptide)
peptide: Ac-[Pen][NMeR]SDTL[Pen][d2Nal]E[dK]-NH2
modifications: disulfide 1-7
SMILES: CC(=O)N[C@@H]1C(=O)N(C)[C@@H](CCCNC(=N)N)C(=O)N[C@@H](CO)C(=O)N[C@@H](CC(=O)O)C(=O)N[C@@H]([C@@H](C)O)C(=O)N[C@@H](CC(C)C)C(=O)N[C@H](C(=O)N[C@H](Cc2ccc3ccccc3c2)C(=O)N[C@@H](CCC(=O)O)C(=O)N[C@H](CCCCN)C(N)=O)C(C)(C)SSC1(C)C
Consider B9, for which the IC50 in test [1] is more than 25 nM.

B10: SEQ ID NO: 138 (peptide)
peptide: Ac-[Pen][NMeR]SDTL[Pen][2Nal]E[NMeK]-NH2
modifications: disulfide 1-7 (inferred); also: homodimer via DIG
On to B10, for which the IC50 in test [1] and in test [2] was more than 10 nM in each case.

B11: SEQ ID NO: 13 (peptide)
peptide: Ac-[Pen][NMeR]SDTL[Pen][2Nal][dE][dNMeK]-NH2
modifications: disulfide 1-7 (inferred)
Consider B11, for which the IC50 in test [1] was more than 10 nM; in test [2] it was more than 100 nM.

B12: SEQ ID NO: 60 (peptide)
peptide: Ac-[Pen][NMeR]SDTL[Pen]WE[Dap]
modifications: disulfide 1-7; also: C-terminus written Dap-Ac, acetyl place unclear
The molecule B12 gave an IC50 in test [2] of more than 1000 nM.

B13: SEQ ID NO: 55 (peptide)
peptide: Ac-[Pen][NMeR]SDTL[Pen]W[dE][Dap]-NH2
modifications: disulfide 1-7
SMILES: CC(=O)N[C@@H]1C(=O)N(C)[C@@H](CCCNC(=N)N)C(=O)N[C@@H](CO)C(=O)N[C@@H](CC(=O)O)C(=O)N[C@@H]([C@@H](C)O)C(=O)N[C@@H](CC(C)C)C(=O)N[C@H](C(=O)N[C@@H](Cc2c[nH]c3ccccc23)C(=O)N[C@H](CCC(=O)O)C(=O)N[C@@H](CN)C(N)=O)C(C)(C)SSC1(C)C
Turning to B13, in test [2], the IC50 was more than 100 nM.

B14: SEQ ID NO: 61 (peptide)
peptide: Ac-[Pen][NMeR]SDTL[Pen]WE[Dab]-NH2
modifications: disulfide 1-7
SMILES: CC(=O)N[C@@H]1C(=O)N(C)[C@@H](CCCNC(=N)N)C(=O)N[C@@H](CO)C(=O)N[C@@H](CC(=O)O)C(=O)N[C@@H]([C@@H](C)O)C(=O)N[C@@H](CC(C)C)C(=O)N[C@H](C(=O)N[C@@H](Cc2c[nH]c3ccccc23)C(=O)N[C@@H](CCC(=O)O)C(=O)N[C@@H](CCN)C(N)=O)C(C)(C)SSC1(C)C
B14 displayed a half-inhibitory concentration (IC50) in test [2] of more than 1000 nM.

B15: SEQ ID NO: 35 (peptide)
peptide: Ac-[Pen][NMeR]SDTL[Pen][d2Nal]E[dK]-NH2
modifications: disulfide 1-7; also: dimer via DIG
B15 came in with an IC50 in test [2] of more than 100 nM.

B16: SEQ ID NO: 56 (peptide)
peptide: Ac-[Pen][NMeR]SDTL[Pen]W[dE][Dab]-NH2
modifications: disulfide 1-7
SMILES: CC(=O)N[C@@H]1C(=O)N(C)[C@@H](CCCNC(=N)N)C(=O)N[C@@H](CO)C(=O)N[C@@H](CC(=O)O)C(=O)N[C@@H]([C@@H](C)O)C(=O)N[C@@H](CC(C)C)C(=O)N[C@H](C(=O)N[C@@H](Cc2c[nH]c3ccccc23)C(=O)N[C@H](CCC(=O)O)C(=O)N[C@@H](CCN)C(N)=O)C(C)(C)SSC1(C)C
As to B16, the IC50 in test [2] is more than 500 nM.

B17: SEQ ID NO: 8 (peptide)
peptide: Ac-[Pen][NMeR]SDTL[Pen][1Nal][dE][dK]-NH2
modifications: disulfide 1-7
SMILES: CC(=O)N[C@@H]1C(=O)N(C)[C@@H](CCCNC(=N)N)C(=O)N[C@@H](CO)C(=O)N[C@@H](CC(=O)O)C(=O)N[C@@H]([C@@H](C)O)C(=O)N[C@@H](CC(C)C)C(=O)N[C@H](C(=O)N[C@@H](Cc2cccc3ccccc23)C(=O)N[C@H](CCC(=O)O)C(=O)N[C@H](CCCCN)C(N)=O)C(C)(C)SSC1(C)C
B17 displayed an IC50 in test [1] of more than 25 nM.

B18: SEQ ID NO: 143 (peptide)
peptide: [Pen][NMeR]SDTL[Pen][2Nal]E
modifications: disulfide 1-7 (inferred); not fully specified (bridges); printed as Cyclo-[Pen-N-Me-R-S-D-T-L-Pen-2-Nal-E], Pen-Pen disulfide
Turning to B18, the values for the IC50 in test [1] and in test [2] were 250 nM and more than 10000 nM, respectively.

B19: SEQ ID NO: 64 (peptide)
peptide: Ac-[Pen][NMeR]SDTL[Pen]W[dE][Dab]
modifications: disulfide 1-7; also: C-terminus written Dab-Ac, acetyl place unclear
In the case of B19, the half-inhibitory concentration (IC50) in test [2] was more than 1000 nM.

B20: SEQ ID NO: 62 (peptide)
peptide: Ac-[Pen][NMeR]SDTL[Pen]WE[Dab]
modifications: disulfide 1-7; also: C-terminus written Dab-Ac, acetyl place unclear
The molecule B20 returned an IC50 in test [2] of more than 1000 nM.

B21: SEQ ID NO: 12 (peptide)
peptide: Ac-[Pen][NMeR]SDTL[Pen][1Nal][dE][dNMeK]-NH2
modifications: disulfide 1-7 (inferred)
Molecule B21 yielded an IC50 in test [1] of more than 25 nM.

B22: SEQ ID NO: 10 (peptide)
peptide: Ac-[Pen][NMeR]SDTL[Pen][d1Nal]E[dK]-NH2
modifications: disulfide 1-7
SMILES: CC(=O)N[C@@H]1C(=O)N(C)[C@@H](CCCNC(=N)N)C(=O)N[C@@H](CO)C(=O)N[C@@H](CC(=O)O)C(=O)N[C@@H]([C@@H](C)O)C(=O)N[C@@H](CC(C)C)C(=O)N[C@H](C(=O)N[C@H](Cc2cccc3ccccc23)C(=O)N[C@@H](CCC(=O)O)C(=O)N[C@H](CCCCN)C(N)=O)C(C)(C)SSC1(C)C
B22 registered an IC50 in test [1] of more than 10 nM.

B23: SEQ ID NO: 15 (peptide)
peptide: Ac-[Pen][NMeR]SDTL[Pen][2Nal]E[dNMeK]-NH2
modifications: disulfide 1-7 (inferred)
B23 returned an IC50 in test [1] of less than 10 nM.

B24: SEQ ID NO: 39 (peptide)
peptide: Ac-[Pen][NMeR]SDTL[Pen][2Nal][dE][dNMeK]-NH2
modifications: disulfide 1-7; also: dimer via DIG
Take B24: the concentration for half-maximal inhibition (IC50) in test [2] is more than 10 nM.

B25: SEQ ID NO: 29 (peptide)
peptide: Ac-[Pen][NMeR]SDTL[Pen][2Nal][dE][dK]-NH2
modifications: disulfide 1-7; also: dimer via DIG
For B25, the figures for the IC50 in test [1] and in test [2] were less than 10 nM and more than 10 nM, respectively.
